We go through eight molecules from PMC6614842 (Nucleic Acids Research, 2019).

Series [1] concerns the target Mature full-length TFAM (human mitochondrial transcription factor A, residues 43-246) (human) (UniProt Q00059). Description: ITC. (Isothermal titration calorimetry measures the heat released or taken up as one component is titrated into another.)
Series [2] shares this target. In words: SEC-MALLS.
For series [3] the target is unchanged. Description: SEC-MALLS. The source holds these as a separate data set.
Series [4] shares this target. In words: AUC.
Series [5] has the same target. Description: AUC. The source holds these as a separate data set.
In series [6] the target is T1, TFAM WT (mature) (Homo sapiens, UniProt Q00059 43-246).
T1 sequence: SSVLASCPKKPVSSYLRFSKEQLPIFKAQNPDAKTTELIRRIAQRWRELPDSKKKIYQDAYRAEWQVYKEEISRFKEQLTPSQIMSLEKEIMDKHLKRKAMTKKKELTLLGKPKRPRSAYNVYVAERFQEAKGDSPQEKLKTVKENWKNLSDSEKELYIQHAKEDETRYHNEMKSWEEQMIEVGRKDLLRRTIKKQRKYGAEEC
In words: X-ray crystallography.

Series [7] deals with T2, TFAM-C49A, A488 at C-terminal Cys246 (Homo sapiens, UniProt Q00059 43-246, C49A).
T2 sequence: T1 sequence with C7A
In words: FRET.

Series [8] deals with the molecule itself. Description: native gel or EMSA. (In general: Mobility shift assays separate free from complexed probe on a gel.)
The target of series [9] is T2, TFAM-C49A, A488 at C-terminal Cys246. In words: FRET. The source holds these as a separate data set.
The target in series [10] is T1, TFAM WT (mature). Description: EMSA.
In series [11] the target is T2, TFAM-C49A, A488 at C-terminal Cys246. Description: FRET. This is another data set of the same source.
Series [12] has the same target. In words: FRET. The source holds these as a separate data set.

For orientation: stoichiometry N means the number of molecules, sites or subunits per partner or assembly. A word on the Kd: it is the concentration at which binding is half-saturated. A higher Kd goes with lower affinity.

Numbering of substitutions follows the chain as printed. Like-named read-outs stand apart in the source and are kept apart here.

For “Mature full-length TFAM (human mitochondrial transcription factor A, residues 43-246) (from UniProt Q00059 43-246) (natural protein)”, the stoichiometry N in [1], in [2], in series [3], in series [4] and in [5] was 2 each time.

B1: Site-YBr 22 (dsDNA)
DNA 1: TAACAATTGAATGTCTGCACAG
DNA 2: CTGTGCAGACATTCAATTGTTA
modifications: brominated at thymine positions (positions not given)
Regarding B1, the binding result in series [6] is “binds”.

B2: Site-Y5* 28 (dsDNA)
DNA 1: TAGAGGCTGTGCAGACATTCAATTGTTA
DNA 2: TAACAATTGAATGTCTGCACAGCCTCTA
Regarding B2, the binding result in [7] is “binds”.

B3: TFAM C-terminal tail deletion mutant (TFAM-CTΔ26) (domain or fragment, human, UniProt Q00059 43-220, looked up)
chain: SSVLASCPKKPVSSYLRFSKEQLPIFKAQNPDAKTTELIRRIAQRWRELPDSKKKIYQDAYRAEWQVYKEEISRFKEQLTPSQIMSLEKEIMDKHLKRKAMTKKKELTLLGKPKRPRSAYNVYVAERFQEAKGDSPQEKLKTVKENWKNLSDSEKELYIQHAKEDETRYHNEMKSWEE
As to B3, the binding result in [8] is recorded as “binds”.

B4: Site-Y3* 28 (dsDNA)
DNA 1: TAGAGGCTGTGCAGACATTCAATTGTTA
DNA 2: TAACAATTGAATGTCTGCACAGCCTCTA
For the molecule B4, the binding result in [9] is reported as “binds”.

B5: Site-X 22 (dsDNA)
DNA 1: TAACAAAAAATTTCCACCAAAC
DNA 2: TTTGGTGGAAATTTTTTGTTAG
B5 gave a Kd in [10] of 13.6 ± 2.89 nM.

B6: Site-X5* 28 (dsDNA)
DNA 1: TATCATAACAAAAAATTTCCACCAAACA
DNA 2: TGTTTGGTGGAAATTTTTTGTTATGATA
Regarding B6, the binding result in series [11] is given as “binds”.

B7: Site-X3* 28 (dsDNA)
DNA 1: TATCATAACAAAAAATTTCCACCAAACA
DNA 2: TGTTTGGTGGAAATTTTTTGTTATGATA
B7: the binding result in [12] is “binds”.
